Molecular target: T1, GST-PKM2 (GST fusion PKM2) (UniProt P14618 1-531)
T1 construct: Pyruvate kinase M2 (PKM2); also called recombinant GST- PKM2; source: E. coli BL21 (DE3), purified (Glutathione-Sepharose 4B)
Assay: pull-down; GST-PKM2 on glutathione-sepharose beads incubated with His-HDAC8 at 4 °C (overnight in the methods, 3 h in the legend); washed 5 times with PBST; SDS-PAGE and Coomassie Blue staining; GST-vector as control
Conditions: both partners purified

T1 sequence (P14618 whole entry, the tested form may be a part): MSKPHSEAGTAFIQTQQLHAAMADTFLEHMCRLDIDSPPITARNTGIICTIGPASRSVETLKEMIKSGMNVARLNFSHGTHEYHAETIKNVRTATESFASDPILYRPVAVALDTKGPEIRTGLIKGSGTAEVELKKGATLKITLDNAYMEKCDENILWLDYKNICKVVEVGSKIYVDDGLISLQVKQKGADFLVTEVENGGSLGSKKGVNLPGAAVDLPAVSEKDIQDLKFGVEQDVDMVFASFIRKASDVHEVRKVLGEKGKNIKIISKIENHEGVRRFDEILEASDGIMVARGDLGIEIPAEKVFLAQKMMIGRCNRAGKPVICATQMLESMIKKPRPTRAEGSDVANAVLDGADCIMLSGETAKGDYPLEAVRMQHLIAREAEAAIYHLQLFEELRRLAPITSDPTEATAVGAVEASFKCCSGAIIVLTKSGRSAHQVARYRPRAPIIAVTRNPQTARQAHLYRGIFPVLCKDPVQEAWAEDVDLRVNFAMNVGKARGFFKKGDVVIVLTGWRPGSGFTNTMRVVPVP

binding result: binds
B1: His-HDAC8 (His fusion HDAC8) (enzyme, UniProt Q9BY41 1-377, looked up)
chain: MEEPEEPADSGQSLVPVYIYSPEYVSMCDSLAKIPKRASMVHSLIEAYALHKQMRIVKPKVASMEEMATFHTDAYLQHLQKVSQEGDDDHPDSIEYGLGYDCPATEGIFDYAAAIGGATITAAQCLIDGMCKVAINWSGGWHHAKKDEASGFCYLNDAVLGILRLRRKFERILYVDLDLHHGDGVEDAFSFTSKVMTVSLHKFSPGFFPGTGDVSDVGLGKGRYYSVNVPIQDGIQDEKYYQICESVLKEVYQAFNPKAVVLQLGADTIAGDPMCSFNMTPVGIGKCLKYILQWQLATLILGGGGYNLANTARCWTYLTGVILGKTLSSEIPDHEFFTAYGPDYVLEITPSCRPDRNEPHRIQQILNYIKGNLKHVV
notes: Histone deacetylase 8 (HDAC8)

— paper PMC7719180, “HDAC8-dependent deacetylation of PKM2 directs nuclear localization and glycolysis to promote proliferation in hepatocellular carcinoma” (Cell Death & Disease, 2020)
